# B1: TPR t1 (parent)
# chain: GACCAAUCUGCCCUCAGAGCUCGAGAACAUCUUCGGAUGCAGAGGAGGCAGGCUUCGGUGGCGCGAUAGCGCCAACGUCCUCAACCUCCAAUGCAUCCCACCACAUGAUGAUGCCUGAAGAGCCUUGGUUUUUUG
# Variants of: B1
# Assay: polymerase ribozyme fitness, log enrichment relative to wild type (log ratio); higher = more active; in vitro selection for triplet polymerase activity
# In short: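 In triplicate, a single round of in vitro selection was run on each mutant library, PCR-built and transcribed, covering one subunit of a heterodimeric triplet polymerase ribozyme. Frozen incubation at −7 °C followed annealing with a biotinylated primer, partner subunit and triplets, and extended constructs were then gel-excised, streptavidin-captured and taken through RT-PCR. Fitness is the logarithm of genotype enrichment over wild-type enrichment, from inverse-variance-weighted replicate averages of Illumina-sequenced inputs and outputs. […] only genotypes with ≥10 input reads and ≥1 read per output were kept.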
row,Variant,polymerase ribozyme fitness (log ratio)
1,G69C U116C,-1.92
2,G69U G113U,-0.867
3,C70U U129C,-0.753
4,C70A U130A,-2.04
5,A66G U126G,-2.72
6,A66G C97U U112G,-2.06
7,A66U C76U C89G C124U G128U U132C,-5.09
8,U67C G110U,-3.86
9,G69U C70G A100C,-1.23
10,C70U G113C,-3.06
11,G69A A121U U126G,-2.09
12,A66G G128C,-3.65
13,G69C G113A,-1.72
14,G69U C88G,-0.121
15,G65C C123G U133A,-4.9
16,G71A C79U C98U,-1.99
17,G69A C82U G120A G122U,-2.26
18,G71A G110C,-4.27
19,G69U U112A,1.84
20,C70G A75C C115A,-1.54
21,A66U A105U,-4.44
22,A68G C88G A105C A111C,-4.63
23,C70U A74G G120C,-1.57
24,A68U C124U,-5.86

row,Variant,polymerase ribozyme fitness (log ratio)
1,C70A C88A C89U,-5.58
2,C70U C72G G77C,-2.87
3,G69U C72G U78G U129C,-1.86
4,G71A C104A,-2.33
5,G71A C104U,-0.49
6,A68U A111C,-7.12
7,G69U A105U,-0.0845
8,G69U A105C,-0.532
9,G69C U81G,-5.01
10,A66U U125G,-1.48
11,G69C C70A A91C,-7.25
12,C70A A121C,0.356
13,C70A A121G,0.93
14,C70G G120C,-1.8
15,G69C G110C,-4.54
16,G69A C72G A95G U125A,-6.14
17,G71A C99G A100C C123A,-8.12
18,G71A C85U G128U U131A,-3.17
19,C70A C98U U130G,-2.6
20,G69U C70U C80U G113C A119G,-3.06
21,C70A G113C,-3.23
22,C70U C115G U116C,-4.43
23,G71A U106C,-1.36
24,C70G U96A,-4.79

row,Variant,polymerase ribozyme fitness (log ratio)
1,A66U C89U,-1.51
2,G69U C115A,1
3,C70G A121G U131A,-0.0344
4,C70A A111G,-1.42
5,C70A A111C,-2.46
6,G69A U81A C82U A119G G122U U125A U129C,-5.05
7,G69A C114A,-5.11
8,G69A C114U,-5.33
9,G69A C114G,-4.69
10,C70G C114U,-4.81
11,C70U C102A C124G,-1.09
12,G71C A74G A91C G93C C99G A105U A111G,-6.99
13,U67C C88A,-5.76
14,G69U C98U C115A U130A,-1.03
15,G69C U81G C82U C104U U112G,-2.5
16,C64U U133G,-0.439
17,C64U U133A,-0.0271
18,G69U G93U G120A U125G U129G,-0.716
19,G69A C104U G127A U129A,-2.62
20,C70A C89G U125A,-4.36
21,C64U U106G G120C,-0.96
22,G71A C82U C101A,-0.823
23,C70U U96A,-1.14
24,C70A C104A U109A G128C,-7.62

row,Variant,polymerase ribozyme fitness (log ratio)
1,C70G A100U,-4.02
2,G71A U81G G113A C123U,-6.93
3,A68C C124A,-5.4
4,C70G U87C,-4.17
5,A66C A84C C123U U133G,-0.245
6,U67C A105U,-4.9
7,A66G A100U G128A,-5.33
8,G69C A75G,-2.54
9,C70A A83G C85A C88U,-2.53
10,G69C U133A,-1.62
11,G69C A83U U129A,-1.71
12,C70U A119G,0.891
13,A66U C80A,-5.71
14,C70G C72U C123A U129G U133G,-2.93
15,C70A U81C,-2.67
16,A66C C85U C88A,-1.61
17,G69A U130A U133G,-2.25
18,G69A U133A,-3.31
19,C70A G110A,-3.53
20,G69U C79U C80U U116C,-0.478
21,G71A U87G,-0.439
22,G69U A83U G127A,-1.18
23,G69A C98U,-3.52
24,C70U G77A U81C,-1.19

row,Variant,polymerase ribozyme fitness (log ratio)
1,G71A U78A,-0.645
2,G69U C102A,-1.4
3,G69U C102U,-1.18
4,C64U G135C,0.469
5,C70U C82A,-1.09
6,G69C C98U,-1.79
7,G69C C123G,0.685
8,C70G A74G,-4.02
9,G69C C86G A91U,-4.84
10,C70A C73G G120C,-5.26
11,C70U U109A,-4.47
12,G69U C104A U126A,-1.49
13,C70A G71U A75G C99A A121U G127U,-4.8
14,C70A A100U,-2.07
15,U67C C94A C123U,-6.04
16,G71A A100U,-1.77
17,C70G U112C C114A,-4.91
18,C70A C97U,-2.23
19,G69U G93A,-0.201
20,U67C U131A,-4.05
21,A68G A90U,-4.47
22,C70A C102U,-4.59
23,G69A C88G C102U,-6.62
24,C70A U106C U129A,-2.95

row,Variant,polymerase ribozyme fitness (log ratio)
1,U67A A74U C94G C101A G113C,-7.83
2,C70U C97A,-4.6
3,A66C U130C,-0.918
4,C70A C104U,-1.79
5,A68G G71A A95C,-6.02
6,A66U U78C,-0.769
7,A66U U81A,-1.96
8,G69A U81A C86G,-4.96
9,C70U C79G,-2.8
10,C70U C79U,0.361
11,C70U C79A,-2.03
12,C70G G127C,-3.14
13,A68U C115A G120C,-7.66
14,G71A C101U,-0.59
15,G71A C101A,-2.55
16,C70G C99A,-7.95
17,C64U U96C,-0.0442
18,G69U G110A A118C,0.45
19,C64U U92A,-3.06
20,C70G A119G,-1.37
21,G69U A111U,-1.16
22,C70U A111C U116G A121C,-4.3
23,G65C U87A,-5.6
24,C70A G120C,-0.593

row,Variant,polymerase ribozyme fitness (log ratio)
1,C70U G122A,-0.84
2,A66C U112C A119C,-1.53
3,G69U U112G C123G,1.13
4,A68G C101G,-3.93
5,G71A C89U U126C,-1.9
6,C70G G117A,-3.54
7,C70U A108U,-5.38
8,C70G U78G,-2.07
9,G71A C98G,-6.1
10,C70U U87C U116A A121C,-2.16
11,C70G U78A C86A,-3.32
12,G71C A83U,-1.19
13,C70G C73U,-2.63
14,G69C C97G C101A G107A U112G U130G,-6.6
15,G65A A119U,-6.05
16,C70U G110U G120A U129G,-5.09
17,G71A C94G A108G C123A G135U,-4.8
18,G65U C72A C88G C124A,-5.79
19,G69C C72A C94G,-5.12
20,G69A U78A G93A,-4.02
21,C70A C85U G110C C115U A121G,-7.89
22,A66C C82G,-2.06
23,A66C C82A,-1.46

# Source: the RNAGym collection of RNA variant scans (doi:10.1073/pnas.2313332121)
